From patent publication US20170319674A1

Molecular target: NY-ESO-1 αβTCR with murinized domain 3 in β-chain, paired with the human TCRα-chain (human)
Assay: cell-based or functional assay

Substance: H57-597 (antibody)
- percentage of lysis (standard chromium release assay): 4 fold
